Measured values as given in publication PMC9320966 (Arthritis & Rheumatology (Hoboken, N.j.), 2022).

Target: COMP in mouse joint cartilage (Mus musculus, UniProt Q9R0G6)
Assay: immunostaining of cells or tissue

Sequence of COMP in mouse joint cartilage (Q9R0G6 20-755): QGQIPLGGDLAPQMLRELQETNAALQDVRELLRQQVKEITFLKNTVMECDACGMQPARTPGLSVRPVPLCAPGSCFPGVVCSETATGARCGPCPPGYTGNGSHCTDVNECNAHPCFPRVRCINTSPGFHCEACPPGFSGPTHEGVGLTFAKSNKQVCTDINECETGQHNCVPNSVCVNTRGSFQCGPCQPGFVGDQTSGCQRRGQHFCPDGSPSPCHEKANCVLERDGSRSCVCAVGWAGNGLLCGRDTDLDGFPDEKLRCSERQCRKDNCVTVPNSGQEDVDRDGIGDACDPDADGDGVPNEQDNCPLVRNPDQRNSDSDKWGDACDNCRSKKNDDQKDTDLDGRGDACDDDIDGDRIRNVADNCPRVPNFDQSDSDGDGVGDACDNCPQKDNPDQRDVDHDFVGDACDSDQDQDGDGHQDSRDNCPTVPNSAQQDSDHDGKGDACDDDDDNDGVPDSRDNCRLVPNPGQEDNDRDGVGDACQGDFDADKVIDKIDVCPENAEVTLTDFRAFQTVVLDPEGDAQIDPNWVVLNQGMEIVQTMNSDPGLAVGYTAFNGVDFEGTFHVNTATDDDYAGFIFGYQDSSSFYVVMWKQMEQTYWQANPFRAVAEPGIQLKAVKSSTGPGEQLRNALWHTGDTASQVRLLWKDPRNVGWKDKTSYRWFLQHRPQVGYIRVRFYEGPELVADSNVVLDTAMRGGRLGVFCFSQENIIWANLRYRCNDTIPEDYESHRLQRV

- binding result: binds
B1: murine monoclonal anti-COMP antibody 15A11 (antibody, V domains shown)
VH: QVQLQQSGAELAKPGASVNLSCKASGYTFTNYWVHWVKQRPGQGLEWIGYINPSNTYISYNQQFKDKATLTADKSSSTAYMQLSRLTYEDSSVYYCARGGFFYDYDVWYFDVWGTGTTVTVSS
VL: DVLMTQIPLSLPVSLGDQASISCRSSQNIVHSNGNTYLEWYLQKPGQSPKLLIYKVSNRFSGVPDRFSGSGSGTDFTLKISRVEAEDLGVYYCFQGSHVPFTFGSGTKLEIK
